Test results as given in patent US20120034160A1 (AbbVie / Abbott, published 2012).

B1: DVD1268 (bispecific antibody, human IgG1, kappa)
heavy: not shown
light: DTVVTQSPAFLSVTPGEKVTITCITSTDIDVDMNWYQQKPDQPPKLLISQGNTLRPGVPSRFSSSGSGTDFTFTISSLEAEDAATYYCLQSDNLPLTFGQGTKLEIKRTVAAPDIQMTQSPSSLSASVGDRVTITCRASSGIISYIDWFQQKPGKAPKRLIYATFDLASGVPSRFSGSGSGTDYTLTISSLQPEDFATYYCRQVGSYPETFGQGTKLEIKRTVAAPSVFIFPPSDEQLKSGTASVVCLLNNFYPREAKVQWKVDNALQSGNSQESVTEQDSKDSTYSLSSTLTLSKADYEKHKVYACEVTHQGLSSPVTKSFNRGEC
notes: DVD-Ig, outer AB271, inner AB273, linker set 1; V1 wt hIgG1, V2 kappa; also called DVD1268H; DVD1268L
B2: DVD1262 (bispecific antibody, human IgG1, kappa)
heavy: not shown
light: DIQMTQSPSSLSASVGDRVTITCRASGNIHNYLTWYQQTPGKAPKLLIYNAKTLADGVPSRFSGSGSGTDYTFTISSLQPEDIATYYCQHFWSIPYTFGQGTKLQITRTVAAPDIQMTQSPSSLSASVGDRVTITCRASSGIISYIDWFQQKPGKAPKRLIYATFDLASGVPSRFSGSGSGTDYTLTISSLQPEDFATYYCRQVGSYPETFGQGTKLEIKRTVAAPSVFIFPPSDEQLKSGTASVVCLLNNFYPREAKVQWKVDNALQSGNSQESVTEQDSKDSTYSLSSTLTLSKADYEKHKVYACEVTHQGLSSPVTKSFNRGEC
notes: V1 wt hIgG1, V2 kappa; also called DVD1262H; DVD1262L
B3: DVD1264 (bispecific antibody, human IgG1, kappa)
heavy: not shown
light: DIQMTQSPSSLSASVGDRVTITCRASGNIHNYLTWYQQTPGKAPKLLIYNAKTLADGVPSRFSGSGSGTDYTFTISSLQPEDIATYYCQHFWSIPYTFGQGTKLQITRTVAAPDIQMTQSPSSLSASVGDRVTITCRASSGIISYIDWFQQKPGKAPKRLIYATFDLASGVPSRFSGSGSGTDYTLTISSLQPEDFATYYCRQVGSYPETFGQGTKLEIKRTVAAPSVFIFPPSDEQLKSGTASVVCLLNNFYPREAKVQWKVDNALQSGNSQESVTEQDSKDSTYSLSSTLTLSKADYEKHKVYACEVTHQGLSSPVTKSFNRGEC
notes: V1 wt hIgG1, V2 kappa; also called DVD1264H; DVD1264L
B4: DVD1593 (bispecific antibody, human IgG1, kappa)
heavy: not shown
light: DTQVTQSPSSLSASVGDRVTITCITSTDIDVDMNWYQQKPGKPPKLLISQGNTLRPGVPSRFSSSGSGTDFTFTISSLQPEDFATYYCLQSDNLPLTFGQGTKLEIKRTVAAPSVFIFPPDIQMTQSPSSLSASVGDRVTITCRASSGIISYIDWFQQKPGKAPKRLIYATFDLASGVPSRFSGSGSGTDYTLTISSLQPEDFATYYCRQVGSYPETFGQGTKLEIKRTVAAPSVFIFPPSDEQLKSGTASVVCLLNNFYPREAKVQWKVDNALQSGNSQESVTEQDSKDSTYSLSSTLTLSKADYEKHKVYACEVTHQGLSSPVTKSFNRGEC
notes: DVD-Ig, outer AB270, inner AB273, linker set 2; V1 wt hIgG1, V2 kappa; also called DVD1593H; DVD1593L
B5: DVD1630 (bispecific antibody, human IgG1, kappa)
heavy: not shown
light: EIVLTQSPDFQSVTPKEKVTITCRASQDIGSELHWYQQKPDQPPKLLIKYASHSTSGVPSRFSGSGSGTDFTLTINGLEAEDAGTYYCHQTDSLPYTFGPGTKVDIKRTVAAPDIQMTQSPSSLSASVGDRVTITCRASGNIHNYLTWYQQTPGKAPKLLIYNAKTLADGVPSRFSGSGSGTDYTFTISSLQPEDIATYYCQHFWSIPYTFGQGTKLQITRTVAAPSVFIFPPSDEQLKSGTASVVCLLNNFYPREAKVQWKVDNALQSGNSQESVTEQDSKDSTYSLSSTLTLSKADYEKHKVYACEVTHQGLSSPVTKSFNRGEC
B6: DVD1632 (bispecific antibody, human IgG1, kappa)
heavy: not shown
light: EIVLTQSPDFQSVTPKEKVTITCRASQDIGSELHWYQQKPDQPPKLLIKYASHSTSGVPSRFSGSGSGTDFTLTINGLEAEDAGTYYCHQTDSLPYTFGPGTKVDIKRTVAAPDIQMTQSPSSLSASVGDRVTITCRASGNIHNYLTWYQQTPGKAPKLLIYNAKTLADGVPSRFSGSGSGTDYTFTISSLQPEDIATYYCQHFWSIPYTFGQGTKLQITRTVAAPSVFIFPPSDEQLKSGTASVVCLLNNFYPREAKVQWKVDNALQSGNSQESVTEQDSKDSTYSLSSTLTLSKADYEKHKVYACEVTHQGLSSPVTKSFNRGEC
B7: DVD1591 (bispecific antibody, human IgG1, kappa)
heavy: not shown
light: DIQMTQSPSSLSASVGDRVTITCRASGNIHNYLTWYQQTPGKAPKLLIYNAKTLADGVPSRFSGSGSGTDYTFTISSLQPEDIATYYCQHFWSIPYTFGQGTKLQITRTVAAPSVFIFPPDIQMTQSPSSLSASVGDRVTITCRASSGIISYIDWFQQKPGKAPKRLIYATFDLASGVPSRFSGSGSGTDYTLTISSLQPEDFATYYCRQVGSYPETFGQGTKLEIKRTVAAPSVFIFPPSDEQLKSGTASVVCLLNNFYPREAKVQWKVDNALQSGNSQESVTEQDSKDSTYSLSSTLTLSKADYEKHKVYACEVTHQGLSSPVTKSFNRGEC
notes: V1 wt hIgG1, V2 kappa; also called DVD1591H; DVD1591L
B8: DVD1629 (bispecific antibody, human IgG1, kappa)
heavy: not shown
light: DIQMTQSPSSLSASVGDRVTITCRASGNIHNYLTWYQQTPGKAPKLLIYNAKTLADGVPSRFSGSGSGTDYTFTISSLQPEDIATYYCQHFWSIPYTFGQGTKLQITRTVAAPEIVLTQSPDFQSVTPKEKVTITCRASQDIGSELHWYQQKPDQPPKLLIKYASHSTSGVPSRFSGSGSGTDFTLTINGLEAEDAGTYYCHQTDSLPYTFGPGTKVDIKRTVAAPSVFIFPPSDEQLKSGTASVVCLLNNFYPREAKVQWKVDNALQSGNSQESVTEQDSKDSTYSLSSTLTLSKADYEKHKVYACEVTHQGLSSPVTKSFNRGEC
B9: DVD1631 (bispecific antibody, human IgG1, kappa)
heavy: not shown
light: DIQMTQSPSSLSASVGDRVTITCRASGNIHNYLTWYQQTPGKAPKLLIYNAKTLADGVPSRFSGSGSGTDYTFTISSLQPEDIATYYCQHFWSIPYTFGQGTKLQITRTVAAPEIVLTQSPDFQSVTPKEKVTITCRASQDIGSELHWYQQKPDQPPKLLIKYASHSTSGVPSRFSGSGSGTDFTLTINGLEAEDAGTYYCHQTDSLPYTFGPGTKVDIKRTVAAPSVFIFPPSDEQLKSGTASVVCLLNNFYPREAKVQWKVDNALQSGNSQESVTEQDSKDSTYSLSSTLTLSKADYEKHKVYACEVTHQGLSSPVTKSFNRGEC
B10: DVD1627 (bispecific antibody, human IgG1, kappa)
heavy: not shown
light: ETTVTQSPSSLSASVGDRVTITCITSTDIDVDMNWYQQKPGKPPKLLISQGNTLRPGVPSRFSSSGSGTDFTFTISSLQPEDFATYYCLQSDNLPLTFGQGTKLEIKRTVAAPDIQMTQSPSSLSASVGDRVTITCRASSGIISYIDWFQQKPGKAPKRLIYATFDLASGVPSRFSGSGSGTDYTLTISSLQPEDFATYYCRQVGSYPETFGQGTKLEIKRTVAAPSVFIFPPSDEQLKSGTASVVCLLNNFYPREAKVQWKVDNALQSGNSQESVTEQDSKDSTYSLSSTLTLSKADYEKHKVYACEVTHQGLSSPVTKSFNRGEC
B11: DVD1644 (bispecific antibody, human IgG1, kappa)
heavy: not shown
light: EIVLTQSPDFQSVTPKEKVTITCRASQNIGSELHWYQQKPDQSPKLLIKYASHSISGVPSRFSGSGSGTDFTLTINGLEAEDAATYYCHQSDTLPHTFGQGTKVDIKRTVAAPDTQVTQSPSSLSASVGDRVTITCITSTDIDVDMNWYQQKPGKPPKLLISQGNTLRPGVPSRFSSSGSGTDFTFTISSLQPEDFATYYCLQSDNLPLTFGQGTKLEIKRTVAAPSVFIFPPSDEQLKSGTASVVCLLNNFYPREAKVQWKVDNALQSGNSQESVTEQDSKDSTYSLSSTLTLSKADYEKHKVYACEVTHQGLSSPVTKSFNRGEC
B12: DVD1628 (bispecific antibody, human IgG1, kappa)
heavy: not shown
light: DIQMTQSPSSLSASVGDRVTITCRASSGIISYIDWFQQKPGKAPKRLIYATFDLASGVPSRFSGSGSGTDYTLTISSLQPEDFATYYCRQVGSYPETFGQGTKLEIKRTVAAPETTVTQSPSSLSASVGDRVTITCITSTDIDVDMNWYQQKPGKPPKLLISQGNTLRPGVPSRFSSSGSGTDFTFTISSLQPEDFATYYCLQSDNLPLTFGQGTKLEIKRTVAAPSVFIFPPSDEQLKSGTASVVCLLNNFYPREAKVQWKVDNALQSGNSQESVTEQDSKDSTYSLSSTLTLSKADYEKHKVYACEVTHQGLSSPVTKSFNRGEC
B13: DVD1595 (bispecific antibody, human IgG1, kappa)
heavy: not shown
light: DTVVTQSPAFLSVTPGEKVTITCITSTDIDVDMNWYQQKPDQPPKLLISQGNTLRPGVPSRFSSSGSGTDFTFTISSLEAEDAATYYCLQSDNLPLTFGQGTKLEIKRTVAAPSVFIFPPDIQMTQSPSSLSASVGDRVTITCRASSGIISYIDWFQQKPGKAPKRLIYATFDLASGVPSRFSGSGSGTDYTLTISSLQPEDFATYYCRQVGSYPETFGQGTKLEIKRTVAAPSVFIFPPSDEQLKSGTASVVCLLNNFYPREAKVQWKVDNALQSGNSQESVTEQDSKDSTYSLSSTLTLSKADYEKHKVYACEVTHQGLSSPVTKSFNRGEC
notes: DVD-Ig, outer AB271, inner AB273, linker set 2; V1 wt hIgG1, V2 kappa; also called DVD1595H; DVD1595L

Legend:
[1] = target: T1, Recombinant Human IL-1β (human, UniProt P01584 117-269); experiment: Biacore SPR; N-terminal VD
T1 construct: bought reagent; also called IL-1B
Summary of the method: (§1)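 First, goat anti-mouse IgG was immobilized on a CM5 chip by amine coupling. Next, test antibody or DVD-Ig (25 μg/ml) was captured. Then antigen at 10−200 nM flowed over at 25 μl/min, 25° C. Finally, association and dissociation phases were globally fitted to a 1:1 model.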

[2] = target: T2, Recombinant Human IL-17 (human, UniProt Q16552 20-155, limits assumed); experiment: Biacore SPR; C-terminal VD
T2 construct: bought reagent
T2 sequence (looked up): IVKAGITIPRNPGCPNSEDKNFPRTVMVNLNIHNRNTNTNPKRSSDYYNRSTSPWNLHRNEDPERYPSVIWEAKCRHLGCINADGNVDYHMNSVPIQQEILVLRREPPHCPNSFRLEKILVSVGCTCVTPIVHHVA
Summary of the method: as §1

[3] = target: Recombinant Human IL-1β (human, UniProt P01584 117-269); experiment: cell-based or functional assay
[4] = target: T3, Recombinant Human IL-17 (human, UniProt Q16552 20-155, limits assumed); experiment: cell-based or functional assay
T3 sequence (looked up): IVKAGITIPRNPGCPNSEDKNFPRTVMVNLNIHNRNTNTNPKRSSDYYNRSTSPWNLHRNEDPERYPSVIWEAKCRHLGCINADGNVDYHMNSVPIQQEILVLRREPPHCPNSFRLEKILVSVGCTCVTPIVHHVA

| Binder | Kd [1] [nM] | koff [1] [s⁻¹] | kon [1] [M⁻¹ s⁻¹] | Kd [2] [nM] | koff [2] [s⁻¹] | kon [2] [M⁻¹ s⁻¹] | C-Terminal VD IL-1β Neutralization Assay EC50 [3] [nM] | N-terminal VD IL-17 Neutralization Assay EC50 [4] [nM] | N-Terminal VD IL-1β Neutralization Assay EC50 [3] [nM] | C-terminal VD IL-17 Neutralization Assay EC50 [4] [nM] |
| --- | --- | --- | --- | --- | --- | --- | --- | --- | --- | --- |
| B1 | 0.067 | 0.00057 | 8.5e+06 | < 0.02 | < 1e-06 | 51000 | – | – | – | – |
| B2 | 0.033 | 4.8e-05 | 1.4e+06 | 12 | 0.0001 | 8500 | – | – | – | – |
| B3 | 0.024 | 2.2e-05 | 940000 | 0.3 | 1.1e-05 | 37000 | – | – | – | – |
| B4 | 0.064 | 0.00047 | 7.4e+06 | 0.027 | 9.2e-06 | 340000 | – | – | – | – |
| B5 | – | – | – | – | – | – | 9.38 | 0.0041 | – | – |
| B6 | – | – | – | – | – | – | 0.438 | 0.0065 | – | – |
| B7 | 0.032 | 3.1e-05 | 960000 | < 0.0032 | < 1e-06 | 310000 | – | – | – | – |
| B8 | – | – | – | – | – | – | – | – | 0.0126 | 0.359 |
| B9 | – | – | – | – | – | – | – | – | 0.00417 | 0.46 |
| B10 | – | – | – | – | – | – | – | – | 0.621 | 0.0586 |
| B11 | – | – | – | – | – | – | 1.08 | 0.0122 | – | – |
| B12 | – | – | – | – | – | – | 5.85 | 0.0163 | – | – |
| B13 | 0.055 | 0.00041 | 7.4e+06 | 0.0043 | 6e-06 | 1.4e+06 | – | – | – | – |
